Results reported in patent publication US20240392020A1 (JIANGSU HENGRUI PHARMACEUTICALS, published 2024).

T1: B7H3 on the recombinant cell line CT26-B7H3 (UniProt Q5ZPR3 29-534, limits assumed)
T1 construct: whole, on cells
T1 sequence (looked up): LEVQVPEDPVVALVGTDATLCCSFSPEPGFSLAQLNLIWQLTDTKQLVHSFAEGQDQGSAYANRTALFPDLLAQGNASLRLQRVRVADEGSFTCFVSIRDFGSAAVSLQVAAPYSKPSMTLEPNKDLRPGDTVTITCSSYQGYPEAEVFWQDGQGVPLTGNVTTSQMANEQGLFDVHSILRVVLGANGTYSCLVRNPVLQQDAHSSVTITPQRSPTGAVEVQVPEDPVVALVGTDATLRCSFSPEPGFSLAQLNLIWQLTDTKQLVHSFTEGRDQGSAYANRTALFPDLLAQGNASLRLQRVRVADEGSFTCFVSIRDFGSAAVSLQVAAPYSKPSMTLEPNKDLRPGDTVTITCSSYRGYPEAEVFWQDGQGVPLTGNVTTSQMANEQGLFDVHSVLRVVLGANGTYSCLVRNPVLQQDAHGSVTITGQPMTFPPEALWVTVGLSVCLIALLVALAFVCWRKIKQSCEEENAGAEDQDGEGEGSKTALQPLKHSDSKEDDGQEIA

B1: S0 (antibody, human IgG1, kappa)
heavy: not shown
light: DIQMTQSPASLSASVGDRVTITCRASENIFSYLAWYQQKPGKSPKLLVYNTRTLAEGVPSRFSGSGSGTDFSLTISSLQPEDFATYYCQHHYGTPFTFGSGTKLEIKRTVAAPSVFIFPPSDEQLKSGTASVVCLLNNFYPREAKVQWKVDNALQSGNSQESVTEQDSKDSTYSLSSTLTLSKADYEKHKVYACEVTHQGLSSPVTKSFNRGEC
notes: also called SO
B2: S3 (antibody)
heavy: not shown
light: DIQMTQSPASLSASVGDRVTITCRASENIFSYLAWYQQKPGKSPKLLVYNTRTLAEGVPSRFSGSGSGTDFSLTISSLQPEDFATYYCQHHYGTPFTFGSGTKLEIKQGSPPCFLRFPRPVRVVSGAEAELKCVVLGEPPPVVVWEKGGQQLAASERLSFPADGAEHGLLLTAALPTDAGVYVCRARNAAGEAYAAAAVTVLEPP
B3: F2 (antibody)
heavy: not shown
light: DTVVTQEPSFSVSPGGTVTLTCGLSSGSVSTSHYPSWYQQTPGQAPRMLIYNTNTRSSGVPDRFSGSILGNKAALTITGAQADDESDYYCAIHVDRDIWVFGGGTKLTVLFDPVYKVKPNPPHNLSVINSEELSSILKLTWTNPSIKSVIILKYNIQYRTKDASTWSQIPPEDTASTRSSFTVQDLKPFTEYVFRIRCMKEDGKGYWSDWSEEASGIT
B4: V5 (antibody)
heavy: not shown
light: QIVLTQSPAILSASPGEKVTMTCRASSSVSYMNWYQQKPGSSPKPWIYATSNLASGVPARFSVSVSGTSHSLTISRVEAEDAATYYCQQWSSNPLTFGAGTKLELKGIPPKIEALPSDISIDEGKVLTVACAFTGEPTPEVTWSCGGRKIHSQEQGRFHIENTDDLTTLIIMDVQKQDGGLYTLSLGNEFGSDSATVNIHIRSI
B5: V6 (antibody)
heavy: not shown
light: QIVLTQSPAILSASPGEKVTMTCRASSSVSYMNWYQQKPGSSPKPWIYATSNLASGVPARFSVSVSGTSHSLTISRVEAEDAATYYCQQWSSNPLTFGAGTKLELKGIPPKIEALPSDISIDEGKVLTVACAFTGEPTPEVTWSCGGRKIHSQEQGRFHIENTDDLTTLIIMDVQKQDGGLYTLSLGNEFGSDSATVNIHIRSI
B6: V0 (antibody, human IgG1, lambda)
heavy: not shown
light: QIVLTQSPAILSASPGEKVTMTCRASSSVSYMNWYQQKPGSSPKPWIYATSNLASGVPARFSVSVSGTSHSLTISRVEAEDAATYYCQQWSSNPLTFGAGTKLELKGQPKAAPSVTLFPPSSEELQANKATLVCLISDFYPGAVTVAWKADSSPVKAGVETTTPSKQSNNKYAASSYLSLTPEQWKSHRSYSCQVTHEGSTVEKTVAPTECS
B7: F1 (antibody)
heavy: not shown
light: DTVVTQEPSFSVSPGGTVTLTCGLSSGSVSTSHYPSWYQQTPGQAPRMLIYNTNTRSSGVPDRFSGSILGNKAALTITGAQADDESDYYCAIHVDRDIWVFGGGTKLTVLGILQPDPPANITVTAVARNPRWLSVTWQDPHSWNSSFYRLRFELRYRAERSKTFTTWMVKDLQHHCVIHDAWSGLRHVVQLRAQEEFGQGEWSEWSPEAMGTPW
B8: S4 (antibody)
heavy: not shown
light: DIQMTQSPASLSASVGDRVTITCRASENIFSYLAWYQQKPGKSPKLLVYNTRTLAEGVPSRFSGSGSGTDFSLTISSLQPEDFATYYCQHHYGTPFTFGSGTKLEIKGIPPKIEALPSDISIDEGKVLTVACAFTGEPTPEVTWSCGGRKIHSQEQGRFHIENTDDLTTLIIMDVQKQDGGLYTLSLGNEFGSDSATVNIHIRSI
B9: PL-6 (bispecific antibody, human IgG1, kappa, L234A L235A)
heavy 1: not shown
light 1: DIVLTQSPASLAVSPGQRATITCRASESVSIHGTHLMHWYQQKPGQPPKLLIYAASKLESGVPARFSGSGSGTDFTLTINPVEAEDTANYYCQQSFEDPLTFGQGTKLEIKGGGGSGIPPKIECLPIDISIDEGKCLTVASAFTGEPTPEVTWSTGGRKIHSQEQGRFHIENTDDSTTLTIKDVQKQDGGLYTLTLRNEFGSDSATVNIHIRSI
heavy 2: not shown
light 2: not shown
B10: PL-12 (bispecific antibody, human IgG1, kappa, L234A L235A)
heavy 1: not shown
light 1: DIVLTQSPASLAVSPGQRATITCRASESVSIHGTHLMHWYQQKPGQPPKLLIYAASKLESGVPARFSGSGSGTDFTLTINPVEAEDTANYYCQQSFEDPLTFGQGTKLEIKRTVASGIPPKIECLPIDISIDEGKCLTVASAFTGEPTPEVTWSTGGRKIHSQEQGRFHIENTDDSTTLTIKDVQKQDGGLYTLTLRNEFGSDSATVNIHIRSI
heavy 2: not shown
light 2: not shown
B11: PL-18 (bispecific antibody, human IgG1, kappa, L234A L235A)
heavy 1: not shown
light 1: DIVLTQSPASLAVSPGQRATITCRASESVSIHGTHLMHWYQQKPGQPPKLLIYAASKLESGVPARFSGSGSGTDFTLTINPVEAEDTANYYCQQSFEDPLTFGQGTKLEIKRTVASGIPPKIECLPIDISIDEGKCLTVASAFTGEPTPEVTWSTGGRKIHSQEQGRFHIENTDDSTTLTIKDVQKQDGGLYTLTLRNEFGSDSATVNIHIRSI
heavy 2: not shown
light 2: not shown
B12: PL-14 (bispecific antibody, human IgG1, kappa, L234A L235A)
heavy 1: not shown
light 1: DIVLTQSPASLAVSPGQRATITCRASESVSIHGTHLMHWYQQKPGQPPKLLIYAASKLESGVPARFSGSGSGTDFTLTINPVEAEDTANYYCQQSFEDPLTFGQGTKLEIKRTVASGIPPKIECLPIDISIDEGKVLTVASAFTGEPTPEVTWSTGGRKIHSQEQGRFHIENTDDSTTLTIKDVQKQDGGLYTLTLRNEFGSDSATVNIHIRSI
heavy 2: not shown
light 2: not shown
B13: PL-19 (bispecific antibody, human IgG1, kappa, L234A L235A)
heavy 1: not shown
light 1: DIVLTQSPASLAVSPGQRATITCRASESVSIHGTHLMHWYQQKPGQPPKLLIYAASKLESGVPARFSGSGSGTDFTLTINPVEAEDTANYYCQQSFEDPLTFGQGTKLEIKRTVASGIPPKIECLPIDISIDEGKVLTVASCFTGEPTPEVTWSTGGRKIHSQEQGRFHIENTDDSTTLTIKDVQKQDGGLYTLTLRNEFGSDSATVNIHIRSI
heavy 2: not shown
light 2: not shown
B14: PL-13 (bispecific antibody, human IgG1, kappa, L234A L235A)
heavy 1: not shown
light 1: DIVLTQSPASLAVSPGQRATITCRASESVSIHGTHLMHWYQQKPGQPPKLLIYAASKLESGVPARFSGSGSGTDFTLTINPVEAEDTANYYCQQSFEDPLTFGQGTKLEIKRTVASGIPPKIECLPIDISIDEGKVLTVASCFTGEPTPEVTWSTGGRKIHSQEQGRFHIENTDDSTTLTIKDVQKQDGGLYTLTLRNEFGSDSATVNIHIRSI
heavy 2: not shown
light 2: not shown
B15: PL-17 (bispecific antibody, human IgG1, kappa, L234A L235A)
heavy 1: not shown
light 1: DIVLTQSPASLAVSPGQRATITCRASESVSIHGTHLMHWYQQKPGQPPKLLIYAASKLESGVPARFSGSGSGTDFTLTINPVEAEDTANYYCQQSFEDPLTFGQGTKLEIKRTVASGIPPKIECLPIDISIDEGKVLTVASAFTGEPTPEVTWSTGGRKIHSQEQGRFHIENTDDSTTLTIKDVQKQDGGLYTLTLRNEFGSDSATVNIHIRSI
heavy 2: not shown
light 2: not shown
B16: PL-15 (bispecific antibody, human IgG1, kappa, L234A L235A)
heavy 1: not shown
light 1: DIVLTQSPASLAVSPGQRATITCRASESVSIHGTHLMHWYQQKPGQPPKLLIYAASKLESGVPARFSGSGSGTDFTLTINPVEAEDTANYYCQQSFEDPLTFGQGTKLEIKRTVASGIPPKIECLPIDISIDEGKCLTVASAFTGEPTPEVTWSTGGRKIHSQEQGRFHIENTDDSTTLTIKDVQKQDGGLYTLTLRNEFGSDSATVNIHIRSI
heavy 2: not shown
light 2: not shown
B17: PL-11 (bispecific antibody, human IgG1, kappa, L234A L235A)
heavy 1: not shown
light 1: DIVLTQSPASLAVSPGQRATITCRASESVSIHGTHLMHWYQQKPGQPPKLLIYAASKLESGVPARFSGSGSGTDFTLTINPVEAEDTANYYCQQSFEDPLTFGQGTKLEIKRTVASGIPPKIECLPIDISIDEGKVLTVASAFTGEPTPEVTWSTGGRKIHSQEQGRFHIENTDDSTTLTIKDVQKQDGGLYTLTLRNEFGSDSATVNIHIRSI
heavy 2: not shown
light 2: not shown
B18: PL-10 (bispecific antibody, human IgG1, kappa, L234A L235A)
heavy 1: not shown
light 1: DIVLTQSPASLAVSPGQRATITCRASESVSIHGTHLMHWYQQKPGQPPKLLIYAASKLESGVPARFSGSGSGTDFTLTINPVEAEDTANYYCQQSFEDPLTFGQGTKLEIKGGGGSGIPPKIECLPIDISIDEGKVLTVASCFTGEPTPEVTWSTGGRKIHSQEQGRFHIENTDDSTTLTIKDVQKQDGGLYTLTLRNEFGSDSATVNIHIRSI
heavy 2: not shown
light 2: not shown
B19: PL-9 (bispecific antibody, human IgG1, kappa, L234A L235A)
heavy 1: not shown
light 1: DIVLTQSPASLAVSPGQRATITCRASESVSIHGTHLMHWYQQKPGQPPKLLIYAASKLESGVPARFSGSGSGTDFTLTINPVEAEDTANYYCQQSFEDPLTFGQGTKLEIKGGGGSGIPPKIECLPIDISIDEGKCLTVASAFTGEPTPEVTWSTGGRKIHSQEQGRFHIENTDDSTTLTIKDVQKQDGGLYTLTLRNEFGSDSATVNIHIRSI
heavy 2: not shown
light 2: not shown
B20: PL-8 (bispecific antibody, human IgG1, kappa, L234A L235A)
heavy 1: not shown
light 1: DIVLTQSPASLAVSPGQRATITCRASESVSIHGTHLMHWYQQKPGQPPKLLIYAASKLESGVPARFSGSGSGTDFTLTINPVEAEDTANYYCQQSFEDPLTFGQGTKLEIKGGGGSGIPPKIECLPIDISIDEGKVLTVASAFTGEPTPEVTWSTGGRKIHSQEQGRFHIENTDDSTTLTIKDVQKQDGGLYTLTLRNEFGSDSATVNIHIRSI
heavy 2: not shown
light 2: not shown
B21: PL-7 (bispecific antibody, human IgG1, kappa, L234A L235A)
heavy 1: not shown
light 1: DIVLTQSPASLAVSPGQRATITCRASESVSIHGTHLMHWYQQKPGQPPKLLIYAASKLESGVPARFSGSGSGTDFTLTINPVEAEDTANYYCQQSFEDPLTFGQGTKLEIKGGGGSGIPPKIECLPIDISIDEGKVLTVASCFTGEPTPEVTWSTGGRKIHSQEQGRFHIENTDDSTTLTIKDVQKQDGGLYTLTLRNEFGSDSATVNIHIRSI
heavy 2: not shown
light 2: not shown

What follows are binders tested against T1, B7H3 on the recombinant cell line … (assay: FACS, CT26-B7H3 cells).
B1 gave an EC50 of 1.01 nM.
With B2 the EC50 was 3.5 nM.
In the case of B3, the EC50 is reported as 59.3 nM.
In the case of B4, the EC50 is reported as 3.2 nM.
For B5, the EC50 was 4.7 nM.
B6 gave an EC50 of 1.8 nM.
B7 was tested, and the EC50 was 71.6 nM.
In the case of B8, the EC50 is reported as 1.96 nM.

These binders were tested against T2, hPDL1 antigen (human, UniProt Q9NZQ7 19-239, limits assumed) (assay: ELISA).
T2 construct: bought
T2 sequence (Q9NZQ7 19-239 limits assumed): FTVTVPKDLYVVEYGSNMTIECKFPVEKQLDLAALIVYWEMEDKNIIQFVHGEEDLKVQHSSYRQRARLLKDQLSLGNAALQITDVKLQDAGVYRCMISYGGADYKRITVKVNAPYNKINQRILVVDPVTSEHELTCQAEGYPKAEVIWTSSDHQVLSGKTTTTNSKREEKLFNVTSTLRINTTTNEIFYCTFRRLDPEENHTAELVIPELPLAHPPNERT
Procedure: For an antibody targeting a soluble protein, the binding activity of the antibody against the soluble protein was detected by ELISA. […] After the blocking was completed, the blocking solution was discarded; and the plate was washed 3 times with a PBST buffer (pH 7.4, PBS containing 0.1% tween-20). 100 μL of the antibody solution diluted in a gradient was added to each well, and the mixture was incubated at 37° C. for 1 h. After the incubation was completed, the plate was washed 3 times with PBST. […] The plate was washed 3 times with PBST. […] The reaction was stopped by adding 50 μL of 1 M H₂SO₄ to each well. The absorbance values at 450 nm were read on a microplate reader, the binding curves of the antibodies to an antigen were fitted with software, and the EC₅₀ values were calculated.
Work on B9 yielded an EC50 of 0.8 nM.
B10 was tested, and the EC50 was 0.5 nM.
B11 gave an EC50 of 1.6 nM.
B12 showed an EC50 of 1.3 nM.
Binder B13 has an EC50 of 1.6 nM.
In the case of B14, the EC50 is reported as 0.5 nM.
Work on B15 yielded an EC50 of 1.4 nM.
B16 showed an EC50 of 1.4 nM.
Binder B17 has an EC50 of 0.6 nM.
B18 was tested, and the EC50 was 0.6 nM.
Binder B19 has an EC50 of 0.6 nM.
B20 gave an EC50 of 1.4 nM.
B21 gave an EC50 of 0.5 nM.
